Data: FireProtDB (doi:10.1002/pro.5560070624)

B1: Ferrienterobactin receptor, P05825 (parent)
chain: MNKKIHSLALLVNLGIYGVAQAQEPTDTPVSHDDTIVVTAAEQNLQAPGVSTITADEIRKNPVARDVSKIIRTMPGVNLTGNSTSGQRGNNRQIDIRGMGPENTLILIDGKPVSSRNSVRQGWRGERDTRGDTSWVPPEMIERIEVLRGPAAARYGNGAAGGVVNIITKKGSGEWHGSWDAYFNAPEHKEEGATKRTNFSLTGPLGDEFSFRLYGNLDKTQADAWDINQGHQSARAGTYATTLPAGREGVINKDINGVVRWDFAPLQSLELEAGYSRQGNLYAGDTQNTNSDSYTRSKYGDETNRLYRQNYALTWNGGWDNGVTTSNWVQYEHTRNSRIPEGLAGGTEGKFNEKATQDFVDIDLDDVMLHSEVNLPIDFLVNQTLTLGTEWNQQRMKDLSSNTQALTGTNTGGAIDGVSTTDRSPYSKAEIFSLFAENNMELTDSTIVTPGLRFDHHSIVGNNWSPALNISQGLGDDFTLKMGIARAYKAPSLYQTNPNYILYSKGQGCYASAGGCYLQGNDDLKAETSINKEIGLEFKRDGWLAGVTWFRNDYRNKIEAGYVAVGQNAVGTDLYQWDNVPKAVVEGLEGSLNVPVSETVMWTNNITYMLKSENKTTGDRLSIIPEYTLNSTLSWQAREDLSMQTTFTWYGKQQPKKYNYKGQPAVGPETKEISPYSIVGLSATWDVTKNVSLTGGVDNLFDKRLWRAGNAQTTGDLAGANYIAGAGAYTYNEPGRTWYMSVNTHF

Variants of: B1
Details: Escherichia coli (strain K12); pH 7; 25 °C; GdnHCl; ESR; MOPS 20 mM; structure 1FEP; whole UniProt chain shown

| Variant | denaturant m value | denaturant midpoint (higher = more stable) |
| --- | --- | --- |
| E272C | 5.76 kcal/mol/M | 1.57 M |
| S268C | 4.21 kcal/mol/M | 1.77 M |
| Q278C | 1.31 kcal/mol/M | 1.91 M |
| L266C | 3.25 kcal/mol/M | 2.28 M |
| E270C | 4.08 kcal/mol/M | 1.65 M |
| S276C | 4.61 kcal/mol/M | 1.29 M |
| G274C | 5.28 kcal/mol/M | 1.5 M |
